The source of these data is article PMC4105619, “Identification and Characterisation of Aedes aegypti Aldehyde Dehydrogenases Involved in Pyrethroid Metabolism” (PLoS ONE, 2014).

Substrate in series [1]: NC(=O)c1ccc[n+]([C@@H]2O[C@H](COP(=O)(O)OP(=O)(O)OC[C@H]3O[C@@H](n4cnc5c(N)ncnc54)[C@H](O)[C@@H]3O)[C@@H](O)[C@H]2O)c1
The experiment in a line: purified protein. The format is biochemical, Aedes aegypti. The following applies: saturating PBald, 33 mM phosphate pH 8.2, 1 mM EDTA, 0.1 mM pyrazole, 37°C, varied: cofactor.

Substrate in series [2]: O=Cc1cccc(Oc2ccccc2)c1
In words: purified protein. Format: biochemical, Aedes aegypti. The following applies: saturating NAD+, 33 mM phosphate pH 8.2, 1 mM EDTA, 0.1 mM pyrazole, 37°C.

The Km is the substrate concentration at which the rate is half of its maximum.

B1: ALDH9948 (Aedes aegypti) (protein)
chain: MANANPEIKYTQLFINNEFVDAVSGKVFPTVNPSTGKKIVDIAEGDKADVDLAVQAAKAAFQRSSKWRQMDASARGKLIYKLADLMERDMHQIASLESLDNGKPYMSAVYDVYGSMNCLRYYAGWTDKVCGETVPSDGPHLTYTRKEPFGVVGQIIPWNYPLLMLAWKWGPALAAGCTIVMKPAEQTPLTALYMCSLVKEAGFPPGVVNMVPGYGPTAGNAITMHPDIRKVAFTGSVEVGKIVMAGAASNLKKVSLELGGKSPLVICDDVDVNEAAQIAYTGVFENMGQCCIAATRTFVQEGIYDAFVQKATELAKGRKVGNPFSQGIQHGPQIDDIQFKKILGFIETGKKEGAKLETGGVQVGEEGYFIEPTVFSNVTDEMTIAKEEIFGPVQSIIKFKTLDEAIERANATSFGLAAGIVTKNLNNALTFSNAVEAGSVWVNTYLAVSNQAPFGGYKQSGVGREMGKEGIEEYLETKTVSIKLPSKV
notes: full length, N-terminal His6 fusion from pET100-D/TOPO, E. coli BL21 Star (DE3), HisTrap Ni purified, about 65 kDa on SDS-PAGE; cDNA from PMD-R strain
As for B1, the Km in the series “purified protein [1]” came to 139.1 ± 27.9 nM; in “purified protein [2]”, 153.8 ± 30.8 nM.

B2: ALDH14080 (Aedes aegypti) (protein)
chain: MANPNQEIKYTKLFINNQFVDSQSGKTFPTLNPATGQKIVDVAEGDKADVDIAVQAAKTAFARSSAWRQMDASARGKLLHKLADLMERDINVLANLESLDNGKAFGDSVFDMNCAIDTFRYYAGWADKIHGSTVPSDGPVMTYIRKEPVGVVGQIIPWNYPVLMLTWKWAPALATGCTLVLKPAEQTPLSALYMAALSKEAGFPDGVINVVNGYGPTVGAAIVNHAEIRKVAFTGSVETGRLITEGSSKSNLKRVSLELGGKSPLVVFDDFDVDEAVEIAHNAIFANHGQNCCAGSRTFVQEGVYDKFVAKAAEMAKARKVGDAFAEGTQQGPQVDEEQLNKILGFFESASKEGAKLQTGGKRHGNVGYFVEPTVYSDVTDEMRIAREEIFGPVQSILKFKTLDEVIERANRTEYGLAAGVLTNNLNNALVFSNAVEAGSVWVNCYDYVMPTTPFGGFKQSGHGRELGYDGIELYTETKTVTIKLPSKV
notes: as for B1
On to B2, for which the Km in the series “purified protein [1]” turned out to be 193.8 ± 34.5 nM.
